Five substances from US20210046191A1 can be followed below.

Where two headings read alike, the source gives them in different places.

Assay [1] deals with recombinant human C5a (rhC5a) (human) (UniProt P01031).
The target in assay [2] is C5a receptor C5aR (CD88) on human blood neutrophils (human) (UniProt P21730). Kind of assay: cell-based or functional assay.
Assay [3] has the same target. Kind of assay: cell-based or functional assay. The source holds these as a separate data set.

Sequence of C5a receptor C5aR (CD88) on human blood neutrophils (human) (P21730 whole entry): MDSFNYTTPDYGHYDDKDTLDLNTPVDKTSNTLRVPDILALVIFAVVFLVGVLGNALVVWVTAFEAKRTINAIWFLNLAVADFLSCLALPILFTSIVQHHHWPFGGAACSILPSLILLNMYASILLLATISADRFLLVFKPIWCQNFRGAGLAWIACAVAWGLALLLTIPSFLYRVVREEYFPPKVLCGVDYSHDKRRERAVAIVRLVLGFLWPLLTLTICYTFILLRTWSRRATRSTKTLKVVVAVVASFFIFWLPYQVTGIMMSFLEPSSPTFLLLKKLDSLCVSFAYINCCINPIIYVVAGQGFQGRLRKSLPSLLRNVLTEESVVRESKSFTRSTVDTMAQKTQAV
Sequence of recombinant human C5a (rhC5a) (human) (P01031 678-751 limits assumed): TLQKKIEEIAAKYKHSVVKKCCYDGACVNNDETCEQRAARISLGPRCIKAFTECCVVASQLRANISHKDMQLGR

For the substance irrelevant human IgG4 antibody, the blocking activity (%) of rhC5a-induced CD11b upregulation on neutrophils, human whole blood, flow cytometry; bar 'IgG4 control : rhC5a = 1:1' against rhC5a (16.7 nM) alone in assay [1] stood at 7%.

For PMX-53 (peptide), in assay [2], the Blocking activity (%) on CD11b upregulation; Pat. 088 | PMX 53 (50 nM) was determined as 55.5%, the Blocking activity (%) on CD11b upregulation; Pat. 092 | PMX 53 (50 nM) is 56.7%, the Blocking activity (%) on CD11b upregulation; huPP | rhC5a | PMX 53 (50 nM) amounted to 50.3% and the CD11b (mean MFI) on neutrophils; Pat. 088 | PMX 53 (50 nM) came out at 4730 MFI. Also, in assay [2], the CD11b (mean MFI) on neutrophils; Pat. 092 | PMX 53 (50 nM) was 4660 MFI and the CD11b (mean MFI) on neutrophils; huPP | rhC5a | PMX 53 (50 nM) came out at 4240 MFI. In assay [3], the Blocking activity (%) on CD11b upregulation; Pat. 088 | PMX 53 (20 µM) is 104%, the Blocking activity (%) on CD11b upregulation; Pat. 092 | PMX 53 (20 µM) was determined as 109%, the Blocking activity (%) on CD11b upregulation; huPP | rhC5a | PMX 53 (20 µM) worked out at 108% and the CD11b (mean MFI) on neutrophils; Pat. 088 | PMX 53 (20 µM) turned out to be 2030 MFI. Further, in assay [3], the CD11b (mean MFI) on neutrophils; Pat. 092 | PMX 53 (20 µM) was 1910 MFI and the CD11b (mean MFI) on neutrophils; huPP | rhC5a | PMX 53 (20 µM) amounted to 1850 MFI.

In assay [2], anti-C5aR (CD88) antibody Clone 7H110 gave a Blocking activity (%) on CD11b upregulation; Pat. 088 | Clone 7H110 (50 nM) of 75.7%, a Blocking activity (%) on CD11b upregulation; Pat. 092 | Clone 7H110 (50 nM) of 78.7%, a Blocking activity (%) on CD11b upregulation; huPP | rhC5a | Clone 7H110 (50 nM) of 70.7% and a CD11b (mean MFI) on neutrophils; Pat. 088 | Clone 7H110 (50 nM) of 3560 MFI. In assay [2], this substance came in with a CD11b (mean MFI) on neutrophils; Pat. 092 | Clone 7H110 (50 nM) of 3390 MFI and a CD11b (mean MFI) on neutrophils; huPP | rhC5a | Clone 7H110 (50 nM) of 3380 MFI.

On to “recombinant human C5a (rhC5a) (from UniProt P01031 678-751) (ligand)”, for which the results for the CD11b (mean MFI) on neutrophils; huPP | rhC5a (20 nM) in assay [2] and in assay [3] were 6330 MFI and 8330 MFI, respectively.

In assay [2], anti-C5aR (CD88) antibody Clone S5/1 returned a Blocking activity (%) on CD11b upregulation; Pat. 088 | Clone S5/1 (50 nM) of 72.7%, a Blocking activity (%) on CD11b upregulation; Pat. 092 | Clone S5/1 (50 nM) of 75.9%, a Blocking activity (%) on CD11b upregulation; huPP | rhC5a | Clone S5/1 (50 nM) of 73% and a CD11b (mean MFI) on neutrophils; Pat. 088 | Clone S5/1 (50 nM) of 3740 MFI. In assay [2], this substance yielded a CD11b (mean MFI) on neutrophils; Pat. 092 | Clone S5/1 (50 nM) of 3560 MFI and a CD11b (mean MFI) on neutrophils; huPP | rhC5a | Clone S5/1 (50 nM) of 3290 MFI.
